Series [1] deals with T1, PolY (Y-family TLS DNA polymerase) (Saccharolobus/Sulfolobus solfataricus …, UniProt Q97W02 1-352).
T1 sequence: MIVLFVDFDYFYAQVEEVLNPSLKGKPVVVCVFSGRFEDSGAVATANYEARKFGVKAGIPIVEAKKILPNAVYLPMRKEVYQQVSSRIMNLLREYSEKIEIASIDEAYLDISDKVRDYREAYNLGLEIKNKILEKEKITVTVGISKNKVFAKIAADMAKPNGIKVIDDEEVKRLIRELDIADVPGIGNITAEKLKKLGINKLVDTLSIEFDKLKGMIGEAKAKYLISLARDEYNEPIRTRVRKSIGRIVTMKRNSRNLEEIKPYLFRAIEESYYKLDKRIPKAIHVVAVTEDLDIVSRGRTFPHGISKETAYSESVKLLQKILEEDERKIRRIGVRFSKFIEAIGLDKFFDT
In words: fluorescence anisotropy; Fluorescence anisotropy, 4 nM DNA, room temperature, 90 s incubation, Hill fit, mean of three titrations; binding buffer not stated in the material (as in ref 38). The note with it: protein: recombinant, label: 5'-FAM on primer (strand 1), primer-template. (In general: In fluorescence polarisation assays a small probe gives low polarisation when free and higher when bound to something large.)

Series [2] deals with T2, PCNA123 (Saccharolobus solfataricus) (UniProt P57766).
T2 sequence 1: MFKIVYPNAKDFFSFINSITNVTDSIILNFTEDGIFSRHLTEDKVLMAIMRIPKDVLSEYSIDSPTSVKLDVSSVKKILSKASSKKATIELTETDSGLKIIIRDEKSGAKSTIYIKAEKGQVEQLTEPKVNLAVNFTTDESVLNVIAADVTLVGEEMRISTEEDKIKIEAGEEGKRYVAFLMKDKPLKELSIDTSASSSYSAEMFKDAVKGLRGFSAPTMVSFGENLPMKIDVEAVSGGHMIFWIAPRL
T2 sequence 2: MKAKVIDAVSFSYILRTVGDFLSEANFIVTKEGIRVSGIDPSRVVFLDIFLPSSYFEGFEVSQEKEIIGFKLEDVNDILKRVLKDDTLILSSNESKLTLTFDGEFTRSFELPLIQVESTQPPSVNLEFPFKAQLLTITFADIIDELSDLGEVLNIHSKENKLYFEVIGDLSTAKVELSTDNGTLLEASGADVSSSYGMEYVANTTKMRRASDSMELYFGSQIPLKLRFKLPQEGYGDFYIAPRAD
T2 sequence 3: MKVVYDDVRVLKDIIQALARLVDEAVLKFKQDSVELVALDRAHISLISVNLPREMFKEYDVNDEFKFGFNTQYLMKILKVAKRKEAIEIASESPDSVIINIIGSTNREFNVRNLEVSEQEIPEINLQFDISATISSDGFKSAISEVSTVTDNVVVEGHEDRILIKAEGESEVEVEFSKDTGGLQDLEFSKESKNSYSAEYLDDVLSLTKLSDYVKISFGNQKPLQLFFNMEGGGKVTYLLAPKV

Series [3] has as its target T2, PCNA123 (Saccharolobus solfataricus). This is another data set of the same source.
Setting [4] is: 5' overhang 30 nt on template (strand 2).
The mark [5] stands for this setting: 5' overhang 26 nt on template (strand 2).

B1: p22-FAM/t52Und (-1, undamaged) (dsDNA)
DNA 1: GCGAGGCGAGCGCGAGCGATAC
DNA 2: CGTCCAACATGAAGCTTGCACTCGATCGCGGTATCGCTCGCGCTCGCCTCGC
In general, Kd refers to the concentration at which binding is half-saturated. For B1, the equilibrium dissociation constant (Kd) in series [1] (setting [4]) was 16.1 ± 0.4 nM.

B2: p26-FAM/t528 (+3, 8-oxoG) (dsDNA)
DNA 1: GCGAGGCGAGCGCGAGCGATACCGCG
DNA 2: CGTCCAACATGAAGCTTGCACTCGATCGCGGTATCGCTCGCGCTCGCCTCGC
modifications: 8-oxoguanine at position 30 from 5' of strand 2 (23 from 3' end), written as G
For B2, the equilibrium dissociation constant (Kd) in series [1] (setting [5]) worked out at 13 ± 0.4 nM.

B3: p22-FAM/t528 (-1, 8-oxoG) (dsDNA)
DNA 1: GCGAGGCGAGCGCGAGCGATAC
DNA 2: CGTCCAACATGAAGCTTGCACTCGATCGCGGTATCGCTCGCGCTCGCCTCGC
modifications: 8-oxoguanine at position 30 from 5' of strand 2 (23 from 3' end), written as G
Consider B3, for which the Kd in series [1] (setting [4]) turned out to be 25.9 ± 8.2 nM.

B4: p26-FAM/t52Und (+3, undamaged) (dsDNA)
DNA 1: GCGAGGCGAGCGCGAGCGATACCGCG
DNA 2: CGTCCAACATGAAGCTTGCACTCGATCGCGGTATCGCTCGCGCTCGCCTCGC
Turning to B4, in series [1] (setting [5]), the dissociation constant (Kd) was determined as 31.2 ± 3.5 nM.

B5: PolY (enzyme)
chain: MIVLFVDFDYFYAQVEEVLNPSLKGKPVVVCVFSGRFEDSGAVATANYEARKFGVKAGIPIVEAKKILPNAVYLPMRKEVYQQVSSRIMNLLREYSEKIEIASIDEAYLDISDKVRDYREAYNLGLEIKNKILEKEKITVTVGISKNKVFAKIAADMAKPNGIKVIDDEEVKRLIRELDIADVPGIGNITAEKLKKLGINKLVDTLSIEFDKLKGMIGEAKAKYLISLARDEYNEPIRTRVRKSIGRIVTMKRNSRNLEEIKPYLFRAIEESYYKLDKRIPKAIHVVAVTEDLDIVSRGRTFPHGISKETAYSESVKLLQKILEEDERKIRRIGVRFSKFIEAIGLDKFFDT
In turn, B5 had an observed rate constant (kobs) of 8-oxoG lesion bypass from primer p22 (-1), Scheme ii: PolY added at initiation to DNA pre-loaded with PCNA123 and RFC; rapid quench, 40°C in series [2] of 0.22 s⁻¹.

B6: PolB1 (enzyme)
chain: MTKQLTLFDIPSSKPAKSEQNTQQSQQSAPVEEKKVVRREWLEEAQENKIYFLLQVDYDGKKGKAVCKLFDKETQKIYALYDNTGHKPYFLVDLEPDKVGKIPKIVRDPSFDHIETVSKIDPYTWNKFKLTKIVVRDPLAVRRLRNDVPKAYEAHIKYFNNYMYDIGLIPGMPYVVKNGKLESVYLSLDEKDVEEIKKAFADSDEMTRQMAVDWLPIFETEIPKIKRVAIDIEVYTPVKGRIPDSQKAEFPIISIALAGSDGLKKVLVLNRNDVNEGSVKLDGISVERFNTEYELLGRFFDILLEYPIVLTFNGDDFDLPYIYFRALKLGYFPEEIPIDVAGKDEAKYLAGLHIDLYKFFFNKAVRNYAFEGKYNEYNLDAVAKALLGTSKVKVDTLISFLDVEKLIEYNFRDAEITLQLTTFNNDLTMKLIVLFSRISRLGIEELTRTEISTWVKNLYYWEHRKRNWLIPLKEEILAKSSNIRTSALIKGKGYKGAVVIDPPAGIFFNITVLDFASLYPSIIRTWNLSYETVDIQQCKKPYEVKDETGEVLHIVCMDRPGITAVITGLLRDFRVKIYKKKAKNPNNSEEQKLLYDVVQRAMKVFINATYGVFGAETFPLYAPAVAESVTALGRYVITSTVKKAREEGLTVLYGDTDSLFLLNPPKNSLENIIKWVKTTFNLDLEVDKTYKFVAFSGLKKNYFGVYQDGKVDIKGMLVKKRNTPEFVKKVFNEVKELMISINSPNDVKEIKRKIVDVVKGSYEKLKNKGYNLDELAFKVMLSKPLDAYKKNTPQHVKAALQLRPFGVNVLPRDIIYYVKVRSKDGVKPVQLAKVTEIDAEKYLEALRSTFEQILRAFGVSWDEIAATMSIDSFFSYPSKGNS
In turn, B6 registered an observed rate constant (kobs) of extension from primer p26 (+3), Scheme vi: PolB1 added at initiation to DNA pre-loaded with PCNA123 and RFC; rapid quench, 40°C in series [3] of 2.1 s⁻¹.

Source of the values: publication PMC7641752, “A hand-off of DNA between archaeal polymerases allows high-fidelity replication to resume at a discrete intermediate three bases past 8-oxoguanine”.
